Measurements as given in patent US20220160939A1, “SELF-ASSEMBLING PEPTIDES AS BRONCHIAL OBSTRUCTION AGENTS” (3-D MATRIX, LTD., priority 2014, published 2022).

Key:
[1] = Appearance of 1.5% peptide solutions with various salts at room temperature; assay type: physicochemical; details: for Appearance: room temperature
Protocol: The effect of salt ionic strength level on the properties of peptide solutions was evaluated to identify optimized salt ionic strength levels for the peptides as described herein. Increasing the salt ionic strength level of PuraMatrix® (SEQ ID NO:1) and other peptides may generally improve its function and mechanical strength for various clinical applications. To adjust the salt ionic strength of the peptide solutions by way of example, various salt buffer solutions including NaCl, KCl, MgCl2, CaCl2 and DPBS (10×) were added to 2 mL of 1.5% peptide solutions.

[2] = pH and appearance of 2.5% peptide solutions after adding 0.1 N NaOH; assay type: physicochemical
Protocol: To adjust the pH level of the peptide solutions by way of example, 0.1 N NaOH was added to 2 mL of 2.5% peptide solutions and their pH and appearance were measured.

Swine lungs = test: Lung volume reduction: injection of peptide hydrogel into bronchi of excised lungs; details: hydrogel with 0.00585% Indigo Carmine
Excerpt: Swine lungs were obtained from freshly euthanized pigs. An endotracheal tube, connected to a syringe filled with a peptide hydrogel, was inserted through the trachea and primary bronchus into the lobe of interest. The tube was led through the bronchi to the end of the appropriate lobe and the distance was noted.
The self-assembling peptide hydrogels were comprised of Ac-RADARADARADARADA-NH2 (SEQ ID NO: 1) (i.e., RADA16) or Ac-IEIKIEIKIEIKI-NH2 (SEQ ID NO: 2) (i.e., IEIK13). RADA16 (SEQ ID NO:1) or IEIK13 (SEQ ID NO:2) was mixed with 0.00585% Indigo Carmine to observe spreading of the hydrogels throughout the lobes. When mixed, the peptides were reconstituted with […]. The peptides were reconstituted first in deionized water, and subsequently with 1% Indigo Carmine to provide a final concentration of 0.00585% of the contrast reagent.
Once the lobe of interest was identified, the endotracheal tube was fed to the end where the hydrogels were injected. After each injection of 1 ml of hydrogel the tube was retracted 2 cm and the injection was repeated. This procedure was repeated until a backflow of hydrogel was observed from the bronchi and the total volume of hydrogel injected was noted. The final injection ranged from 0.5-1.5 ml. After backflow of hydrogel was observed, the lobes were cut at 90 degrees to the midline for histological analysis. FIG. 25 illustrates the procedural flow of injecting peptide hydrogel into the bronchi of a single lobe of the lung and observation of penetration of the solution. Lumen penetration of 1% Indigo Carmine solution (left) was compared to 1.5% IEIK13 (SEQ ID NO:2)+0.00585% Indigo Carmine (right).
Tissue samples were fixed in paraformaldehyde and rinsed with ethanol. Histology was conducted at Beth Israel Deaconess Medical Center. […] FIG. 28A presents the IEIK13 (SEQ ID NO:2) gel observed within the major lumens. FIG. 28B presents the IEIK13 ((SEQ ID NO:2) gel observed within the minor lumens. Due to H&E processing, peptide gels break/fragment. Optical imaging has shown that these gels remain as bulk structures.

[3] = Rheological properties of pH adjusted peptide solutions; assay type: physicochemical
Protocol: Based on the visual observation of the effect of pH level on the properties of the peptide solutions, the effect on the rheological properties of the peptide solutions after adjusting their pH level to 3.4 (PuraMatrix® (SEQ ID NO:1) and KLD12 (SEQ ID NO:3)) or 3.7 (IEIK13 (SEQ ID NO:2)) was evaluated. If the pH levels of peptide solutions are higher than 3.5 (PuraMatrix® (SEQ ID NO:1) and KLD12 (SEQ ID NO:3)) or 3.7 (IEIK13 (SEQ ID NO:2)), the peptide solution began phase separation becoming cloudy. The rheological properties of PuraMatrix® (SEQ ID NO:1), KLD12 (SEQ ID NO:3) and IEIK13 (SEQ ID NO:2) solutions were higher at pH 3.4. The results are shown in FIG. 2 for KLD12 (SEQ ID NO:3) 1%, FIG. 3 for IEIK13 (SEQ ID NO:2) 1%, and FIGS. 4-5 for PuraMatrix® (SEQ ID NO:1) 1% and 2.5%, respectively. Stress sweep tests were performed at 10 rad/s. Frequency sweep tests were performed at 1 Pa.
Based on the results of the effect on the rheological properties of the peptide solutions after adjusting their pH level to 3.4 (PuraMatrix® (SEQ ID NO:1) and KLD12 (SEQ ID NO:3)) or 3.7 (IEIK13 (SEQ ID NO:2)), the effect on the rheological properties of the peptide solutions at various pH levels was evaluated. […] The rheological properties of peptides were evaluated at various concentrations using a rheometer (DHR-1, TA Instruments) with 20 mm plates. The results are shown in FIG. 6A for PuraMatrix® (SEQ ID NO:1) 2.5% solution and FIG. 6B for IEIK13 (SEQ ID NO:2) 1.5% solution, respectively. Frequency sweep tests were performed from 1 rad/sec to 10 rad/sec at 1 Pa and the storage modulus at 1 rad/sec was selected for data.

## Ile-Glu-Ile-Lys-Ile-Glu-Ile-Lys-Ile-Glu-Ile-Lys-Ile [IEIK13]
[1]
  critical salt ionic strengths at which peptides become cloudy: 0.03˜0.04 M
[1]; CaCl2 0 M, ionic strength 0 M, conc. 1.5%
  Appearance: Clear, thick gel
[1]; CaCl2 0.005 M, ionic strength 0.015 M, conc. 1.46%
  Appearance: Clear, thick, stiffer gel
[1]; CaCl2 0.0067 M, ionic strength 0.02 M, conc. 1.45%
  Appearance: Clear, thick, stiffer gel
[1]; CaCl2 0.0083 M, ionic strength 0.025 M, conc. 1.44%
  Appearance: Clear, thick, stiffer gel
[1]; CaCl2 0.01 M, ionic strength 0.03 M, conc. 1.43%
  Appearance: Clear, thick, stiffer gel
[1]; CaCl2 0.0117 M, ionic strength 0.035 M, conc. 1.41%
  Appearance: Clear, thick, stiffer gel
[1]; CaCl2 0.0133 M, ionic strength 0.04 M, conc. 1.40%
  Appearance: Slightly cloudy, thick, stiffer gel
[1]; CaCl2 0.015 M, ionic strength 0.045 M, conc. 1.39%
  Appearance: Slightly cloudy, thick, stiffer gel
[1]; CaCl2 0.0167 M, ionic strength 0.05 M, conc. 1.37%
  Appearance: Slightly cloudy, brittle gel
[1]; CaCl2 0.0183 M, ionic strength 0.055 M, conc. 1.36%
  Appearance: Cloudy, phase-separated
[1]; KCl 0 M, ionic strength 0 M, conc. 1.5%
  Appearance: Clear, thick gel
[1]; KCl 0.005 M, ionic strength 0.005 M, conc. 1.46%
  Appearance: Clear, thick, stiffer gel
[1]; KCl 0.01 M, ionic strength 0.01 M, conc. 1.43%
  Appearance: Clear, thick, stiffer gel
[1]; KCl 0.015 M, ionic strength 0.015 M, conc. 1.39%
  Appearance: Clear, thick, stiffer gel
[1]; KCl 0.02 M, ionic strength 0.02 M, conc. 1.35%
  Appearance: Clear, thick, stiffer gel
[1]; KCl 0.025 M, ionic strength 0.025 M, conc. 1.31%
  Appearance: Clear, thick, stiffer gel
[1]; KCl 0.03 M, ionic strength 0.03 M, conc. 1.27%
  Appearance: Clear, thick, stiffer gel
[1]; KCl 0.035 M, ionic strength 0.035 M, conc. 1.24%
  Appearance: Slightly cloudy, brittle gel
[1]; KCl 0.04 M, ionic strength 0.04 M, conc. 1.2%
  Appearance: Slightly cloudy, brittle
[1]; KCl 0.045 M, ionic strength 0.045 M, conc. 1.16%
  Appearance: Cloudy, phase-separated
[1]; MgCl2 0 M, ionic strength 0 M, conc. 1.5%
  Appearance: Clear, thick gel
[1]; MgCl2 0.005 M, ionic strength 0.015 M, conc. 1.46%
  Appearance: Clear, thick, stiffer gel
[1]; MgCl2 0.0067 M, ionic strength 0.02 M, conc. 1.45%
  Appearance: Clear, thick, stiffer gel
[1]; MgCl2 0.0083 M, ionic strength 0.025 M, conc. 1.44%
  Appearance: Clear, thick, stiffer gel
[1]; MgCl2 0.01 M, ionic strength 0.03 M, conc. 1.43%
  Appearance: Clear, thick, stiffer gel
[1]; MgCl2 0.0117 M, ionic strength 0.035 M, conc. 1.41%
  Appearance: Clear, thick, stiffer gel
[1]; MgCl2 0.0133 M, ionic strength 0.04 M, conc. 1.40%
  Appearance: Slightly cloudy, thick, stiffer gel
[1]; MgCl2 0.015 M, ionic strength 0.045 M, conc. 1.39%
  Appearance: Slightly cloudy, stiffer gel
[1]; MgCl2 0.0167 M, ionic strength 0.05 M, conc. 1.37%
  Appearance: Slightly cloudy, brittle gel
[1]; MgCl2 0.0183 M, ionic strength 0.055 M, conc. 1.36%
  Appearance: Cloudy, phase-separated
[1]; NaCl 0 M, ionic strength 0 M, conc. 1.5%
  Appearance: Clear, thick gel
[1]; NaCl 0.005 M, ionic strength 0.005 M, conc. 1.46%
  Appearance: Clear, thick, stiffer gel
[1]; NaCl 0.01 M, ionic strength 0.01 M, conc. 1.43%
  Appearance: Clear, thick, stiffer gel
[1]; NaCl 0.015 M, ionic strength 0.015 M, conc. 1.39%
  Appearance: Clear, thick, stiffer gel
[1]; NaCl 0.02 M, ionic strength 0.02 M, conc. 1.35%
  Appearance: Clear, thick, stiffer gel
[1]; NaCl 0.025 M, ionic strength 0.025 M, conc. 1.31%
  Appearance: Clear, thick, stiffer gel
[1]; NaCl 0.03 M, ionic strength 0.03 M, conc. 1.27%
  Appearance: Slightly cloudy, thick, stiffer gel
[1]; NaCl 0.035 M, ionic strength 0.035 M, conc. 1.24%
  Appearance: Slightly cloudy, brittle gel
[1]; NaCl 0.04 M, ionic strength 0.04 M, conc. 1.2%
  Appearance: Cloudy, phase-separated
[1]; depending on different salts, 1.5% peptide solutions
  salt ionic strength increase that did not change the clear color, while apparent stiffness increased: 0.025˜0.035 M
[2]; 0.1N NaOH 150 μL/mL added in 2.5% solution, conc. 2.17%
  Appearance: Clear, thick gel, stiffer gel
[2]; 0.1N NaOH 200 μL/mL added in 2.5% solution, conc. 2.08%
  Appearance: Clear, thick gel, stiffer gel
[2]; 0.1N NaOH 250 μL/mL added in 2.5% solution, conc. 2.0%
  Appearance: Clear, thick gel, stiffer gel
[2]; 0.1N NaOH 275 μL/mL added in 2.5% solution, conc. 1.96%
  Appearance: Clear, thick, stiffer gel
[2]; 0.1N NaOH 300 μL/mL added in 2.5% solution, conc. 1.92%
  Appearance: Slightly cloudy, brittle gel
[2]; 0.1N NaOH 400 μL/mL added in 2.5% solution, conc. 1.79%
  Appearance: Cloudy, phase-separated
[2]; NaOH volume and conc. not given
  Peptide solution pH: 7.0
[2]; peptide solution pH 7.0, NaOH volume and conc. not given
  Appearance: Cloudy, phase-separated
Swine lungs
  filling of lumens of the lungs (histology): filled both major and minor lumens
[3]
  pH level above which the peptide solution began phase separation becoming cloudy: > 3.7
[3]; pH adjusted vs not adjusted, KLD12 1%, IEIK13 1%, PuraMatrix 1% and 2.5%
  rheological properties of solutions at pH 3.4: higher
